In the supplement of paper PMC9170038:

What follows are sequences tested on K4 kissing-loop RNA reporter (assay: apparent KD of K4 kissing-loop reporter; higher = weaker reporter binding). Settings: Eterna round: R107; input ligand: FMN 200 uM.
Protocol: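 RNA-MaP round R107: designed RNA switches with theophylline, tryptophan, arginine or FMN aptamers are transcribed on-chip within common flanks. They are titrated with a labelled K4 kissing-loop RNA reporter in RNA-MaP buffer (100 mM Tris pH 7.5, 80 mM KCl, 4 mM MgCl2), without ligand or with the indicated ligand. Median apparent KD per design.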
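Further: bound reporter read as fluorescence of individual clusters on recovered sequencing chips by microscopy, with normalized cluster intensities fitted with a binding model.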

Sequence | apparent KD of K4 kissing-loop reporter [nM]
AAAUUUAAUAUAUUUAAAUAAAUAUGUGAUACCAGACAUUUAUAAGUCCCUUGGCAGCACAAUGCAGUGAUGUUGCUUAUAAUAA [JR_SSTheophyA_Sub017] | 85.6
GAUAAAUUGAUGCGUAGUGAUGCACGGGAAGGAGCGCGUUUUUUCGCAGGUAGGUCGCCCGACUGCGCGUUUCGAGUGAUGUUCG [5.)] | 192
GCCGUAGAUUGAAGGAGCGUGGACCUAUCGCUUGAACAGUGAUGUUGUUUAUCUAGGGAGCCGCAGGUAGGUCGCAAUCUACGGC | 470
UACGCUUACUUGCGCGGUCCGAUUAACGAUACCAGCGAAGAAGCCCGCCCUUGGCAGCGUUAUAGAGUGAUGUUCACGGAGAUUA [theeternabot_sameState_KL_Theo_A_12] | 1100
GAUAUAGUGAUGUUAUAUACUGAUAGACAACGAGGACCGGUACGGCCGCCACUCGAGAGGGUGAAAAUGGUGAUAAAAUAAUGAU [#03 K4 Tryptophan A Exclusion] | 349
UGAUUUAACUGAAGGAGCGGCAAUUGAGAAGGAAAUAUAGUGAUGUUAUAUAAGAGAGAGAGCCAGGUAGGUCGCAGAGGGAGGA [ExArgB.G] | 185
UAGUCCUAGUGAUCCUUAUCAAGUGGUGGGCGAGGACCGGUACGGCCGCCACUCGACUAUGCAGUGAUGUUGUAAUCCGGACAAU [Exclusion - Tryptophan A (Freestyle 12)] | 669
AUGUCUUAUAAACUCGUGGUUUCGAUCGAUACCAGUAGCGAGAGUUACCCUUGGCAGCGACAUGAGUGAUGUUCAUGUACGAAGA [KL-XTheoA4] | 96.1
UUUCUAUCGGGAAGGAGCGUGAAUGAUAAUGGAUAUAGUGAUGUUAUAUAUAAGAACGAAUCGCAGGUAGGUCGCCCGGAUGACU [SSArgB.R] | 346
AAGCAGUCACUCGAAGCCAUCGAAGAUGGUCGAGGACCGGUACGGCCGCCACUCGGAGUGAUGUUCCGAAGACUGCAAAAUAAAA [#SwitchBubble 11] | 275
UAGGCGGGAGAAGGAUAUCUGUGAAACCUGCUGCCCAAUAAGUGAUGUUUAUAAAGGAAGCGUCAUAGAGAAGGUCUAACAAGUA [theeternabot_sameState_KL_FMN_B_1] | 512
AUACAGCGACGCGCUAGUGAUGUUAGCGAAGGAGCGACUCAUGAGUCAGGUAGGUCGCGCUAACGUGGUUACGAGAGUAACCAGU [Arg A Ex t1a] | 93.3
CAUACGCAUGGAGGAUAUGAGAUUUCUCAUGUCAUUUAAUAUUCUCAGUGAUGUUGAGAAUUUGGCUCAGAAGGCCAUGUGUAUG [Ex FMN B 20] | 254
AUUAAUAUCACGGCCGCCACUGAAUAUUGUUUUUAUAUUUAGAAAUCUUGCCAGUGAUGUUGGAUCAGGACCGGGUGAGUUUAUA [JR_SSTryptoB_Sub006] | 613
CUAUGGAAACAUAGUAGUCGGGAAACCGAUACCAGUAUGGAAACAUACCCUUGGCAGCGGAAUGAUUAAACGGAGUGAUGUUCCG [Theophylline A K4 18] | 279
UUUAUAUUCUGAGGAUAUCGUAUUAAUGAAGUGAUGUUUCAGUAUAUUCUAAUUAUAUAUAAUUUUCGAGAAGGCAGUAUUAUUU [JR_Nu3_SSFMNB_Sub028] | 187
GGUUUAUAGGAGGAUACCAGUACGGAUAAAGUACAUUAAUAGUAGAGUGAUGUUCUAAAGUACCCUUGGCAGCUUAGAUUAAGUU [ExTheophylB.I] | 87.1
UGAUACCAGACGGCCGCCACUCCCGCAGGUCAAAGACCUGCGAAGAAGGUUCUUCAGUGAUGUUGGAGGACCGGGUCUGGUAUCU [FiskerMod 22 - Jieux - Exclusion - Tryptophan B] | 217
AAAUAAGCUCAUGAUACCAGCCAGUGAUGUUGGUUGGUCCACCGUGUCCGAACAUUAAGCGGCCCUUGGCAGCAUGAUGCGCGUA [Xearxea] | 125
UGACAUUGCUCAGAUACCAGACUUGAGGAUCACCCAAGUGCCAAACGUACAAUAAUAAAAGUCCCUUGGCAGCUGAGCAAUGUCU [TheoBX 14] | 201
AAGCAGUCACUCGAAACCAUCGAAGAUGGGCGAGGACCGGUACGGCCGCCACUCGGAGUGAUGUUCCGAAGACUGCAAAAUAAAA | 377
CCAUCGCUAUUCGAUACCAGUCAUUUUUUAUUUUAUUUUUUUUUUGGAGUGAUGUUCCAAGACCCUUGGCAGCGAAUAGUGAUGG [whbob_SS_Theo_B_th78] | 119
AUUUUUUUGUCAGGAUAUUAGUGUGCGUUUGGUUUGUUAGUGAUGUUGAUAUUUGGUUUAUGUAUUUAAGAAGGGAUUUAGCGGU [dhbbtemullin] | 557
AAAAUUAACAAGAGUGAUGUUCUUGUUAGACAGGAUAUCGGUUUAACGAGAAGGGUCGUGGCUCCAUUGGGCCCAGUGGUUCACC [Mazareri] | 309
UUCGUAGUAGGAAACUAUUACGAAAAGGAAGGAGCGGCGAAGAAGCCAGGUAGGUCGCCUAUUGACAGUGAUGUUGUUAUGUAGA [#9] | 172
AGAGUGAUGUUUUUUUGAAGUGAGUAAUGUCGAGGACCGGUACGGCCGCCACUCGAGUGAUGUUAGUGAUGUUGAUGUAGUGAUG [?lmullin] | 138
